This note sets out measurements from paper PMC10786891, “Massively parallel profiling of RNA-targeting CRISPR-Cas13d”.

Changes are numbered by the printed parent chain.

B1: target 1 MT 5'PFS GCA 3'PFS UUG (mixed)
RNA 1: CACCCGUGCAAAAAUGCAGGGGUCUAAAACUGAGCGGAUAACCUCUCUAUGG
RNA 2: GGGAAUGGAUCCACAUCUACGAAUUCGCACCAUAGAGAGGUUAUCCGCUCAUUGAGAUCGGAAGAGCACACGU
B2: target 1 del2 (mixed)
RNA 1: B1 RNA 1
RNA 2: GGGAAUGGAUCCACAUCUACGAAUUCGUACCAUAGAGAGGUUAUCCGCUACCGAGAUCGGAAGAGCACACGU
B3: target 1 MT 5'PFS CUU 3'PFS CCC (mixed)
RNA 1: B1 RNA 1
RNA 2: B1 RNA 2 with G27C, C28U, A29U, U52C, U53C, G54C
B4: target 1 MT 5'PFS CUC 3'PFS UAU (mixed)
RNA 1: B1 RNA 1
RNA 2: B1 RNA 2 with G27C, C28U, A29C, U53A, G54U
B5: target 1 MT 5'PFS UUG 3'PFS ACC (mixed)
RNA 1: B1 RNA 1
RNA 2: B1 RNA 2 with G27U, C28U, A29G, U52A, U53C, G54C
B6: target 1 MT 5'PFS GAC 3'PFS CGU (mixed)
RNA 1: B1 RNA 1
RNA 2: B1 RNA 2 with C28A, A29C, U52C, U53G, G54U
B7: target 1 MT 5'PFS UAA 3'PFS UAC (mixed)
RNA 1: B1 RNA 1
RNA 2: B1 RNA 2 with G27U, C28A, U53A, G54C
B8: target 1 MT 5'PFS CCU 3'PFS UCG (mixed)
RNA 1: B1 RNA 1
RNA 2: B1 RNA 2 with G27C, A29U, U53C
B9: target 1 MT 5'PFS UAA 3'PFS UAA (mixed)
RNA 1: B1 RNA 1
RNA 2: B1 RNA 2 with G27U, C28A, U53A, G54A
B10: target 1 MT 5'PFS AAA 3'PFS UGA (mixed)
RNA 1: B1 RNA 1
RNA 2: B1 RNA 2 with G27A, C28A, U53G, G54A
B11: target 1 MT 5'PFS GAC 3'PFS CGA (mixed)
RNA 1: B1 RNA 1
RNA 2: B1 RNA 2 with C28A, A29C, U52C, U53G, G54A
B12: target 1 MT 5'PFS GCU 3'PFS UAU (mixed)
RNA 1: B1 RNA 1
RNA 2: B1 RNA 2 with A29U, U53A, G54U
B13: target 1 MT 5'PFS UUG 3'PFS AAC (mixed)
RNA 1: B1 RNA 1
RNA 2: B1 RNA 2 with G27U, C28U, A29G, U52A, U53A, G54C
B14: target 1 MT 5'PFS GAA 3'PFS CUA (mixed)
RNA 1: B1 RNA 1
RNA 2: B1 RNA 2 with C28A, U52C, G54A
B15: target 1 MT 5'PFS UCC 3'PFS ACU (mixed)
RNA 1: B1 RNA 1
RNA 2: B1 RNA 2 with G27U, A29C, U52A, U53C, G54U
B16: target 1 MT 5'PFS CUU 3'PFS AAC (mixed)
RNA 1: B1 RNA 1
RNA 2: B1 RNA 2 with G27C, C28U, A29U, U52A, U53A, G54C
B17: target 1 MT 5'PFS UCG 3'PFS AAU (mixed)
RNA 1: B1 RNA 1
RNA 2: B1 RNA 2 with G27U, A29G, U52A, U53A, G54U
B18: target 1 MT 5'PFS GGG 3'PFS ACA (mixed)
RNA 1: B1 RNA 1
RNA 2: B1 RNA 2 with C28G, A29G, U52A, U53C, G54A
B19: target 1 MT 5'PFS ACA 3'PFS AGG (mixed)
RNA 1: B1 RNA 1
RNA 2: B1 RNA 2 with G27A, U52A, U53G
B20: target 1 MT 5'PFS GGG 3'PFS AAU (mixed)
RNA 1: B1 RNA 1
RNA 2: B1 RNA 2 with C28G, A29G, U52A, U53A, G54U
B21: target 1 MT 5'PFS GAC 3'PFS CGG (mixed)
RNA 1: B1 RNA 1
RNA 2: B1 RNA 2 with C28A, A29C, U52C, U53G
B22: target 1 MT 5'PFS GAC 3'PFS CGC (mixed)
RNA 1: B1 RNA 1
RNA 2: B1 RNA 2 with C28A, A29C, U52C, U53G, G54C
B23: target 1 MT 5'PFS CCU 3'PFS UCC (mixed)
RNA 1: B1 RNA 1
RNA 2: B1 RNA 2 with G27C, A29U, U53C, G54C
B24: target 1 MT 5'PFS UCC 3'PFS ACG (mixed)
RNA 1: B1 RNA 1
RNA 2: B1 RNA 2 with G27U, A29C, U52A, U53C
B25: target 1 MT 5'PFS GGC 3'PFS UGU (mixed)
RNA 1: B1 RNA 1
RNA 2: B1 RNA 2 with C28G, A29C, U53G, G54U
B26: target 1 MT 5'PFS GGG 3'PFS ACG (mixed)
RNA 1: B1 RNA 1
RNA 2: B1 RNA 2 with C28G, A29G, U52A, U53C
B27: target 1 MT 5'PFS CUU 3'PFS AAU (mixed)
RNA 1: B1 RNA 1
RNA 2: B1 RNA 2 with G27C, C28U, A29U, U52A, U53A, G54U
B28: target 1 MT 5'PFS UCG 3'PFS AAA (mixed)
RNA 1: B1 RNA 1
RNA 2: B1 RNA 2 with G27U, A29G, U52A, U53A, G54A
B29: target 1 insC 3' of 20,insU 3' of 2 (mixed)
RNA 1: B1 RNA 1
RNA 2: GGGAAUGGAUCCACAUCUACGAAUUCGUACCACUAGAGAGGUUAUCCGCUCUACCGAGAUCGGAAGAGCACACGU
B30: target 1 MT 5'PFS GGC 3'PFS UGG (mixed)
RNA 1: B1 RNA 1
RNA 2: B1 RNA 2 with C28G, A29C, U53G
B31: target 1 MT 5'PFS UUG 3'PFS AAU (mixed)
RNA 1: B1 RNA 1
RNA 2: B1 RNA 2 with G27U, C28U, A29G, U52A, U53A, G54U
B32: target 1 MT 5'PFS CUU 3'PFS ACC (mixed)
RNA 1: B1 RNA 1
RNA 2: B1 RNA 2 with G27C, C28U, A29U, U52A, U53C, G54C
B33: target 1 MT 5'PFS UUG 3'PFS CCU (mixed)
RNA 1: B1 RNA 1
RNA 2: B1 RNA 2 with G27U, C28U, A29G, U52C, U53C, G54U
B34: target 1 insA 3' of 11,insG 3' of 2 (mixed)
RNA 1: B1 RNA 1
RNA 2: GGGAAUGGAUCCACAUCUACGAAUUCGUACCAUAGAGAGGUAUAUCCGCUCGACCGAGAUCGGAAGAGCACACGU
B35: target 1 MT 5'PFS GGC 3'PFS UGA (mixed)
RNA 1: B1 RNA 1
RNA 2: B1 RNA 2 with C28G, A29C, U53G, G54A
B36: target 1 MT 5'PFS AAA 3'PFS UGU (mixed)
RNA 1: B1 RNA 1
RNA 2: B1 RNA 2 with G27A, C28A, U53G, G54U
B37: target 1 MT 5'PFS GAA 3'PFS CUU (mixed)
RNA 1: B1 RNA 1
RNA 2: B1 RNA 2 with C28A, U52C, G54U

This data set concerns the target T1, EsCas13d, nuclease-dead (Eubacterium siraeum, UniProt B0MS50, R295A;H300A;R849A;H854A).
T1 sequence: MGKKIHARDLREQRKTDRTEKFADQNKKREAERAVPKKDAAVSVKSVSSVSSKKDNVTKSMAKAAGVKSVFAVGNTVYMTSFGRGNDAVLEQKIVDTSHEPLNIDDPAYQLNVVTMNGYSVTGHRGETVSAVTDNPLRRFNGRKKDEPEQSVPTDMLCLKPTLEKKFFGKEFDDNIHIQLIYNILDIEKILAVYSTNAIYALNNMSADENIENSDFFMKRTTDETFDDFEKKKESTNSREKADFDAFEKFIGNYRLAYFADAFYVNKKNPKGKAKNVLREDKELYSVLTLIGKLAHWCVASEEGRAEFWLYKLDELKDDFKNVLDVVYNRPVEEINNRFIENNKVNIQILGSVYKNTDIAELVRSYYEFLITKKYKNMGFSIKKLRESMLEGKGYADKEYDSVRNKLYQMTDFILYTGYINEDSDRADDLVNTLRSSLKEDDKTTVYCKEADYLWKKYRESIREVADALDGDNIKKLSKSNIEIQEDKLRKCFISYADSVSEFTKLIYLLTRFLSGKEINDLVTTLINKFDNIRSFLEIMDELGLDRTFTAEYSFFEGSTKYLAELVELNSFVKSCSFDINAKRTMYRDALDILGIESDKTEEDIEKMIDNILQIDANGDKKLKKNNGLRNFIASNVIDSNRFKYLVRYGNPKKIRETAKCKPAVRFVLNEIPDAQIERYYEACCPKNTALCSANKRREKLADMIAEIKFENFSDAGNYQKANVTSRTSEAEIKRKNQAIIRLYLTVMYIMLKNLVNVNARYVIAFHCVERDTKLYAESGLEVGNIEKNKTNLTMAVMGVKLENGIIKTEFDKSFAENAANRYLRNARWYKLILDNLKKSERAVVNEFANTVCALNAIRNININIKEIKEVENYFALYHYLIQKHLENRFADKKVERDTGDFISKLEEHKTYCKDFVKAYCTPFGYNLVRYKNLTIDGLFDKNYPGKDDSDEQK
As to the kind of experiment: crRNA (strand 1, pre-loaded); Mg2+; 40 mM Tris-HCl pH 7.5, 150 mM NaCl, 6 mM MgCl2, 1 mM DTT, 0.1% Tween-20, 0.2 mg/ml BSA; 25 C; 10 min per concentration, then washed. Particulars: tags: His6-TwinStrep-SUMO cleaved; N-terminal SNAP kept (SNAP-Surface 488); label: 3' end held by stalled T7 RNA polymerase.
On to B1, for which the Kd was 0.00514 ± 0.00038 µM. Take B2: binding was characterised by a dissociation constant (Kd) of 0.033 ± 0.004 µM. With B3 the figure was 0.08 ± 0.04 µM; with B4, roughly 0.06 µM; with B5, 0.053 ± 0.0235 µM. As for B6, the figure is 0.0155 ± 0.005 µM; as for B7, 0.028 ± 0.0075 µM; as for B8, 0.0142 ± 0.0041 µM. As for B9, the Kd was found to be 0.0465 ± 0.012 µM. For B10, binding was put at a Kd of 0.0201 ± 0.00345 µM. The molecule B11 came in with a Kd of roughly 0.02 µM. B12: binding was characterised by a dissociation constant (Kd) of 0.073 ± 0.028 µM. With B13 the figure was roughly 0.0415 µM; with B14, roughly 0.04 µM; with B15, 0.014 ± 0.005 µM. B16 returned a Kd of 0.041 ± 0.0175 µM. Compared with the last molecule, the Kd is about 2.9-fold higher. As for B17, the figure is 0.03 ± 0.011 µM; as for B18, 0.0285 ± 0.0065 µM. With B19 the figure was roughly 0.046 µM; with B20, 0.028 ± 0.0045 µM; with B21, roughly 0.035 µM. As for B22, the figure is 0.0485 ± 0.014 µM; as for B23, 0.014 ± 0.005 µM. For B24, the dissociation constant Kd was roughly 0.0715 µM. Regarding B25, the affinity, expressed as Kd, was 0.0161 ± 0.00225 µM. With B26 the figure was 0.0175 ± 0.00185 µM; with B27, 0.058 ± 0.027 µM; with B28, 0.023 ± 0.008 µM. With B29 the figure was 0.0147 ± 0.001 µM; with B30, roughly 0.06 µM; with B31, 0.0225 ± 0.00425 µM.

For the molecule B32, the equilibrium dissociation constant (Kd) is roughly 0.024 µM. As for B33, the figure is 0.0196 ± 0.0041 µM; as for B34, 0.0174 ± 0.0008 µM; as for B35, 0.0117 ± 0.00145 µM. B36 yielded a Kd of 0.0405 ± 0.0145 µM. This Kd is about 3.5-fold higher than that of the molecule before.

As to B37, the dissociation constant (Kd) was 0.0185 ± 0.0075 µM. This Kd is about 2.2-fold lower than that of the molecule before.

By Kd is commonly meant the equilibrium constant for the complex coming apart. Low readings indicate higher affinity, high ones lower affinity.
